Reference: patent publication US6960343B2, “Toll/interleukin-1 receptor adapter protein (TIRAP)” (Yale University School of Medicine, priority 2001, dated 2005)

Key:
[1] = target: T1, IL-1R (Homo sapiens, UniProt P14778); experiment: IL-1R-induced NF-κB activity, luciferase reporter, 293T cells; type: cell-based
T1 construct: expressed in transfected cells; host or cells: 293T cells
T1 sequence (P14778 18-569): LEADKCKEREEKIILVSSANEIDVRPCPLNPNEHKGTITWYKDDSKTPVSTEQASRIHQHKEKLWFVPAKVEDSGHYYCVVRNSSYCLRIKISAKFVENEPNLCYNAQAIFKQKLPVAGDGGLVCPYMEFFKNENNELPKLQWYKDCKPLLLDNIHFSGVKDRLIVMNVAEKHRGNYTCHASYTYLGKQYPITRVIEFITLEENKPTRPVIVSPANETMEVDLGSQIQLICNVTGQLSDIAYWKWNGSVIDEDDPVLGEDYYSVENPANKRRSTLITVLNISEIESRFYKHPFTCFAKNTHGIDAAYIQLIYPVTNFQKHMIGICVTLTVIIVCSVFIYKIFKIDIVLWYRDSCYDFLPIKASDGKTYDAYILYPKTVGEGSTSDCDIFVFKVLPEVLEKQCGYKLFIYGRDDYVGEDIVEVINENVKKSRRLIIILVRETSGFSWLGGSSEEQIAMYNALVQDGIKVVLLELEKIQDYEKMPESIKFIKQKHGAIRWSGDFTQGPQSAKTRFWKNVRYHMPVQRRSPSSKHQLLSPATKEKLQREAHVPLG
T1 sequence (Q9NPH3 21-570 partner): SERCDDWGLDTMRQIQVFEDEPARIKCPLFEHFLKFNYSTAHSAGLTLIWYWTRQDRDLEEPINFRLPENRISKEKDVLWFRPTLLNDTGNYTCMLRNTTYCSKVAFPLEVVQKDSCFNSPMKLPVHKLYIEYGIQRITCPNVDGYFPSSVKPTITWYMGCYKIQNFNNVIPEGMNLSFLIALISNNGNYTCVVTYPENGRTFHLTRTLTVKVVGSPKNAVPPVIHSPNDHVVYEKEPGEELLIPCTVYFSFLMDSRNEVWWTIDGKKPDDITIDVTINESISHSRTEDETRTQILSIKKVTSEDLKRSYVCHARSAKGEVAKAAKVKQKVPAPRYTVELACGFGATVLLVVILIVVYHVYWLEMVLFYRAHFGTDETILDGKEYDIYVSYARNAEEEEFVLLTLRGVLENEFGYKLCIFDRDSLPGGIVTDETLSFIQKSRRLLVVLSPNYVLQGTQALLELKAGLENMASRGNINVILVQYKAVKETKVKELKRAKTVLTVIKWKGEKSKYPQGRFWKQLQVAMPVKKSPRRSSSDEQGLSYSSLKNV
Procedure: Unlike TLR4, neither IL-1R nor TLR9 can induce NF-κB in the absence of MyD88 (Kawai 1999; Schnare 2000; Adache 1998). To assess the possibility that TIRAP is the putative adapter in the MyD88-independent signaling pathway, we tested TIRAP P125H for its ability to inhibit NF-κB activity induced y IL-1R and TLR9. 293T cells were co-transfected with either vector alone (pcDNA3), IL-1R (0.1 μg), and IL-1R AcP (0.1 μg) [Dr. Medzhitov: Please indicate what the IL-1R AcP construct encodes] plasmid cDNAs, with or without increasing concentrations (10 ng, 50 ng, 200 ng) of TIRAP P125H plasmid and the NF-κB-dependent luciferase reporter gene.

[2] = target: T2, TLR4 (Homo sapiens, UniProt O00206); experiment: Co-immunoprecipitation with Myc-tagged TLR4 in 293T cells; type: binding; conditions: 293T cell lysates, anti-Flag immunoprecipitation
T2 construct: a Myc-tagged TLR4 deletion construct lacking the ectodomain (Myc TLR4 wt); Myc; expressed in transfected cells; host or cells: 293T cells
T2 sequence (O00206 653-839 limits assumed): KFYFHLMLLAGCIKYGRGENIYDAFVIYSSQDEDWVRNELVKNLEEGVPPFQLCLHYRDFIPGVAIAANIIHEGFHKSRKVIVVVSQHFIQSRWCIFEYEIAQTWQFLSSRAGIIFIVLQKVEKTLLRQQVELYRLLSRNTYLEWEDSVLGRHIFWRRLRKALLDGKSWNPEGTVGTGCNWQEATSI
Source text: Cells were transfected in the presence (+) or absence (−) of constructs encoding a wild-type portion of TLR4 (TLR4 wt), a mutant derivative thereof (TLR4 mut), wild-type TIRAP (TIRAP), a mutant TIRAP containing a P125H mutation (TIRAP PH), or wild-type MyD88 (MyD88), wherein each construct further encodes a Myc, Flag, or hemaglutanin (HA) tag, as indicated. Antibodies used for immunoprecipitation (IP) or immunoblot (IB) are indicated to the left of each blot.
To obtain biochemical conformation for a role of TIRAP in the TLR4 signaling pathway, TIRAP-TLR4 protein interactions were evaluated using co-immunoprecipitation experiments. 293T cells were co-transfected with 4.5 μg of a Myc-tagged TLR4 deletion construct lacking the ectodomain (Myc TLR4 wt) or its mutant derivative (Myc TLR4 P714H) in the presence or absence of 1.5 μg of Flag-tagged TIRAP (Flag TIRAP) or its mutant derivative containing the P125H mutation (Flag TIRAP PH). […] Immunocomplexes were washed, separated by SDS-PAGE electrophoresis, and then analyzed by immunoblotting with either anti-myc antibody to look for co-immunoprecipitated TLR4 or anti-Flag antibody to confirm immunoprecipitation of Flag TIRAP or Flag TIRAP P125H. Total cell lysates (35 μg/sample) were likewise analyzed by SDS-PAGE and immunoblotting to confirm equivalent expression of the appropriate proteins in every sample. […]

inhibition of NF-κB activity induced by IL-1B cytokine [1]: did not inhibit
inhibition of NF-κB activity induced by co-transfected IL-1R and IL-1R AcP ([1]; 293T cells, 10 ng, 50 ng, 200 ng plasmid): did not inhibit
co-immunoprecipitation with TLR4 [2]: filed to co-immunoprecipitate
Substance: TIRAP P125H: vector encoding a mutant form of TIRAP containing a proline to histidine mutation at amino acid position 125
